# B1: ATP synthase mitochondrial F1 complex assembly factor 2 (Homo sapiens), Q8N5M1 (parent)
# chain: MWRSCLRLRDGGRRLLNRPAGGPSASMSPGPTIPSPARAYAPPTERKRFYQNVSITQGEGGFEINLDHRKLKTPQAKLFTVPSEALAIAVATEWDSQQDTIKYYTMHLTTLCNTSLDNPTQRNKDQLIRAAVKFLDTDTICYRVEEPETLVELQRNEWDPIIEWAEKRYGVEISSSTSIMGPSIPAKTREVLVSHLASYNTWALQGIEFVAAQLKSMVLTLGLIDLRLTVEQAVLLSRLEEEYQIQKWGNIEWAHDYELQELRARTAAGTLFIHLCSESTTVKHKLLKE
# partner: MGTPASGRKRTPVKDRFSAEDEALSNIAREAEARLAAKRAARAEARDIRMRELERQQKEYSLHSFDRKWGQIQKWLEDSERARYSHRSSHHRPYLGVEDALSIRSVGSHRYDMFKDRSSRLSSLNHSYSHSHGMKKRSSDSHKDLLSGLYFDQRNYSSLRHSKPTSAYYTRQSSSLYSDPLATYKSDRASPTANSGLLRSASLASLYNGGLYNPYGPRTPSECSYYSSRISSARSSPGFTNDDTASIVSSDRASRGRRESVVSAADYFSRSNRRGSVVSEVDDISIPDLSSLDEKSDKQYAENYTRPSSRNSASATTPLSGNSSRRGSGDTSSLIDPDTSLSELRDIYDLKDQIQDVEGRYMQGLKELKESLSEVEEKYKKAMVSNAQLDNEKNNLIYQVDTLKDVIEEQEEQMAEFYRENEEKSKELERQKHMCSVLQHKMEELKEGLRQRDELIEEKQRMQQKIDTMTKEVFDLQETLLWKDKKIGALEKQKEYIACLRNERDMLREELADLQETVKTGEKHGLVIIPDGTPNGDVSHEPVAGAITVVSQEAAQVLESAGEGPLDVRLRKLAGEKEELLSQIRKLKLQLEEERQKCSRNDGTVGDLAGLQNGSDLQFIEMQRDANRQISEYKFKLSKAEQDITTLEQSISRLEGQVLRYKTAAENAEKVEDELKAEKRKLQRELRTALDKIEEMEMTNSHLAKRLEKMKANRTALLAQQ
# B2: Notch homolog 2 N-terminal-like protein A (Homo sapiens), Q7Z3S9 (parent)
# chain: MCVTYHNGTGYCKCPEGFLGEYCQHRDPCEKNRCQNGGTCVAQAMLGKATCRCASGFTGEDCQYSTSHPCFVSRPCLNGGTCHMLSRDTYECTCQVGFTGKECQWTDACLSHPCANGSTCTTVANQFSCKCLTGFTGQKCETDVNECDIPGHCQHGGTCLNLPGSYQCQCLQGFTGQYCDSLYVPCAPSPCVNGGTCRQTGDFTFECNCLPETVRRGTELWERDREVWNGKEHDEN
# partner: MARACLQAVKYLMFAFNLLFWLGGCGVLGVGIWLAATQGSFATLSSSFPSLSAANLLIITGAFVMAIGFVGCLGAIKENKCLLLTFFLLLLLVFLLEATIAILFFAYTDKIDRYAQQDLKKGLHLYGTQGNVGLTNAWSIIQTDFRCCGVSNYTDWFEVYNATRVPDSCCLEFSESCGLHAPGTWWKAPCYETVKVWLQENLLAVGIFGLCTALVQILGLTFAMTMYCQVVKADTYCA
# B3: Isoform 1 of Myotubularin-related protein 9 (Homo sapiens), Q96QG7-1 (parent)
# chain: MEFAELIKTPRVDNVVLHRPFYPAVEGTLCLTGHHLILSSRQDNTEELWLLHSNIDAIDKRFVGSLGTIIIKCKDFRIIQLDIPGMEECLNIASSIEALSTLDSITLMYPFFYRPMFEVIEDGWHSFLPEQEFELYSSATSEWRLSYVNKEFAVCPSYPPIVTVPKSIDDEALRKVATFRHGGRFPVLSYYHKKNGMVIMRSGQPLTGTNGRRCKEDEKLINATLRAGKRGYIIDTRSLNVAQQTRAKGGGFEQEAHYPQWRRIHKSIERYHILQESLIKLVEACNDQTHNMDRWLSKLEASNWLTHIKEILTTACLAAQCIDREGASILIHGTEGTDSTLQVTSLAQIILEPRSRTIRGFEALIEREWLQAGHPFQQRCAQSAYCNTKQKWEAPVFLLFLDCVWQILRQFPCSFEFNENFLIMLFEHAYASQFGTFLGNNESERCKLKLQQKTMSLWSWVNQPSELSKFTNPLFEANNLVIWPSVAPQSLPLWEGIFLRWNRSSKYLDEAYEEMVNIIEYNKELQAKVNILRRQLAELETEDGMQESP
# partner: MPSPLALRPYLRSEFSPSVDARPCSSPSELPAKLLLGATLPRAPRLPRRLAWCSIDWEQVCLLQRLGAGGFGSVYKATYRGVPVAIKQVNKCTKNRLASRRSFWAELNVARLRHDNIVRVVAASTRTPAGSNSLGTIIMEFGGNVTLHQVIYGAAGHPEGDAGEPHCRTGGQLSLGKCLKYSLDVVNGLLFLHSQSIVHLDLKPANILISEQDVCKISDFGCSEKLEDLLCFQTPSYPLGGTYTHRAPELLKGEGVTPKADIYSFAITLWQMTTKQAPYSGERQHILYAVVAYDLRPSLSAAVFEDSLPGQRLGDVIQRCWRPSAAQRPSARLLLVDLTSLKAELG
# B4: NADPH-dependent diflavin oxidoreductase 1 (Homo sapiens), Q9UHB4 (parent)
# chain: MPSPQLLVLFGSQTGTAQDVSERLGREARRRRLGCRVQALDSYPVVNLINEPLVIFVCATTGQGDPPDNMKNFWRFIFRKNLPSTALCQMDFAVLGLGDSSYAKFNFVAKKLHRRLLQLGGSALLPVCLGDDQHELGPDAAVDPWLRDLWDRVLGLYPPPPGLTEIPPGVPLPSKFTLLFLQEAPSTGSEGQRVAHPGSQEPPSESKPFLAPMISNQRVTGPSHFQDVRLIEFDILGSGISFAAGDVVLIQPSNSAAHVQRFCQVLGLDPDQLFMLQPREPDVSSPTRLPQPCSMRHLVSHYLDIASVPRRSFFELLACLSLHELEREKLLEFSSAQGQEELFEYCNRPRRTILEVLCDFPHTAAAIPPDYLLDLIPVIRPRAFSIASSLLTHPSRLQILVAVVQFQTRLKEPRRGLCSSWLASLDPGQGPVRVPLWVRPGSLAFPETPDTPVIMVGPGTGVAPFRAAIQERVAQGQTGNFLFFGCRWRDQDFYWEAEWQELEKRDCLTLIPAFSREQEQKVYVQHRLRELGSLVWELLDRQGAYFYLAGNAKSMPADVSEALMSIFQEEGGLCSPDAAAYLARLQQTRRFQTETWA
# B5: Iron-sulfur cluster co-chaperone protein HscB (Homo sapiens), Q8IWL3 (parent)
# chain: MWRGRAGALLRVWGFWPTGVPRRRPLSCDAASQAGSNYPRCWNCGGPWGPGREDRFFCPQCRALQAPDPTRDYFSLMDCNRSFRVDTAKLQHRYQQLQRLVHPDFFSQRSQTEKDFSEKHSTLVNDAYKTLLAPLSRGLYLLKLHGIEIPERTDYEMDRQFLIEIMEINEKLAEAESEAAMKEIESIVKAKQKEFTDNVSSAFEQDDFEEAKEILTKMRYFSNIEEKIKLKKIPL
# B6: Tuftelin-interacting protein 11 (Homo sapiens), Q9UBB9 (parent)
# chain: MSLSHLYRDGEGRIDDDDDERENFEITDWDLQNEFNPNRQRHWQTKEEATYGVWAERDSDDERPSFGGKRARDYSAPVNFISAGLKKGAAEEAELEDSDDEEKPVKQDDFPKDFGPRKLKTGGNFKPSQKGFAGGTKSFMDFGSWERHTKGIGQKLLQKMGYVPGRGLGKNAQGIINPIEAKQRKGKGAVGAYGSERTTQSMQDFPVVDSEEEAEEEFQKELSQWRKDPSGSKKKPKYSYKTVEELKAKGRISKKLTAPQKELSQVKVIDMTGREQKVYYSYSQISHKHNVPDDGLPLQSQQLPQSGKEAKAPGFALPELEHNLQLLIDLTEQEIIQNDRQLQYERDMVVNLFHELEKMTEVLDHEERVISNLSKVLEMVEECERRMQPDCSNPLTLDECARIFETLQDKYYEEYRMSDRVDLAVAIVYPLMKEYFKEWDPLKDCTYGTEIISKWKSLLENDQLLSHGGQDLSADAFHRLIWEVWMPFVRNIVTQWQPRNCDPMVDFLDSWVHIIPVWILDNILDQLIFPKLQKEVENWNPLTDTVPIHSWIHPWLPLMQARLEPLYSPIRSKLSSALQKWHPSDSSAKLILQPWKDVFTPGSWEAFMVKNIVPKLGMCLGELVINPHQQHMDAFYWVIDWEGMISVSSLVGLLEKHFFPKWLQVLCSWLSNSPNYEEITKWYLGWKSMFSDQVLAHPSVKDKFNEALDIMNRAVSSNVGAYMQPGARENIAYLTHTERRKDFQYEAMQERREAENMAQRGIGVAASSVPMNFKDLIETKAEEHNIVFMPVIGKRHEGKQLYTFGRIVIYIDRGVVFVQGEKTWVPTSLQSLIDMAK
# partner: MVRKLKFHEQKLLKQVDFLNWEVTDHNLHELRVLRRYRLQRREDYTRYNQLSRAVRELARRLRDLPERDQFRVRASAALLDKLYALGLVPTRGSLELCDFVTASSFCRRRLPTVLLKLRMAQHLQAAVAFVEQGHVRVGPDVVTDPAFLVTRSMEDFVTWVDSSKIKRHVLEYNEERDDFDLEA
# B7: Protein unc-45 homolog A (Homo sapiens), Q9H3U1 (parent)
# chain: MTVSGPGTPEPRPATPGASSVEQLRKEGNELFKCGDYGGALAAYTQALGLDATPQDQAVLHRNRAACHLKLEDYDKAETEASKAIEKDGGDVKALYRRSQALEKLGRLDQAVLDLQRCVSLEPKNKVFQEALRNIGGQIQEKVRYMSSTDAKVEQMFQILLDPEEKGTEKKQKASQNLVVLAREDAGAEKIFRSNGVQLLQRLLDMGETDLMLAALRTLVGICSEHQSRTVATLSILGTRRVVSILGVESQAVSLAACHLLQVMFDALKEGVKKGFRGKEGAIIVDPARELKVLISNLLDLLTEVGVSGQGRDNALTLLIKAVPRKSLKDPNNSLTLWVIDQGLKKILEVGGSLQDPPGELAVTANSRMSASILLSKLFDDLKCDAERENFHRLCENYIKSWFEGQGLAGKLRAIQTVSCLLQGPCDAGNRALELSGVMESVIALCASEQEEEQLVAVEALIHAAGKAKRASFITANGVSLLKDLYKCSEKDSIRIRALVGLCKLGSAGGTDFSMKQFAEGSTLKLAKQCRKWLCNDQIDAGTRRWAVEGLAYLTFDADVKEEFVEDAAALKALFQLSRLEERSVLFAVASALVNCTNSYDYEEPDPKMVELAKYAKQHVPEQHPKDKPSFVRARVKKLLAAGVVSAMVCMVKTESPVLTSSCRELLSRVFLALVEEVEDRGTVVAQGGGRALIPLALEGTDVGQTKAAQALAKLTITSNPEMTFPGERIYEVVRPLVSLLHLNCSGLQNFEALMALTNLAGISERLRQKILKEKAVPMIEGYMFEEHEMIRRAATECMCNLAMSKEVQDLFEAQGNDRLKLLVLYSGEDDELLQRAAAGGLAMLTSMRPTLCSRIPQVTTHWLEILQALLLSSNQELQHRGAVVVLNMVEASREIASTLMESEMMEILSVLAKGDHSPVTRAAAACLDKAVEYGLIQPNQDGE
# Variants of: B1
# Conditions: with lrrf2_human LRRFIP2, Q9Y608
row,Variant,effect of a mutation on the interaction
1,E241G,with no effect

# Variants of: B2
# Conditions: with tsn4_human TSPAN4, O14817
row,Variant,effect of a mutation on the interaction
1,A115T,with no effect
2,R74Q,with no effect

# Variants of: B3
# Conditions: with mos_human MOS
row,Variant,effect of a mutation on the interaction
1,F127I,with no effect

# Variants of: B3
# Conditions: with mos_human MOS
# Remark: another data set of the same source
row,Variant,effect of a mutation on the interaction
1,S126C,with no effect

# Variants of: B4
# Conditions: with mtus2_human MTUS2, Q5JR59
# Chain of mtus2_human MTUS2, Q5JR59 (Q5JR59 whole entry): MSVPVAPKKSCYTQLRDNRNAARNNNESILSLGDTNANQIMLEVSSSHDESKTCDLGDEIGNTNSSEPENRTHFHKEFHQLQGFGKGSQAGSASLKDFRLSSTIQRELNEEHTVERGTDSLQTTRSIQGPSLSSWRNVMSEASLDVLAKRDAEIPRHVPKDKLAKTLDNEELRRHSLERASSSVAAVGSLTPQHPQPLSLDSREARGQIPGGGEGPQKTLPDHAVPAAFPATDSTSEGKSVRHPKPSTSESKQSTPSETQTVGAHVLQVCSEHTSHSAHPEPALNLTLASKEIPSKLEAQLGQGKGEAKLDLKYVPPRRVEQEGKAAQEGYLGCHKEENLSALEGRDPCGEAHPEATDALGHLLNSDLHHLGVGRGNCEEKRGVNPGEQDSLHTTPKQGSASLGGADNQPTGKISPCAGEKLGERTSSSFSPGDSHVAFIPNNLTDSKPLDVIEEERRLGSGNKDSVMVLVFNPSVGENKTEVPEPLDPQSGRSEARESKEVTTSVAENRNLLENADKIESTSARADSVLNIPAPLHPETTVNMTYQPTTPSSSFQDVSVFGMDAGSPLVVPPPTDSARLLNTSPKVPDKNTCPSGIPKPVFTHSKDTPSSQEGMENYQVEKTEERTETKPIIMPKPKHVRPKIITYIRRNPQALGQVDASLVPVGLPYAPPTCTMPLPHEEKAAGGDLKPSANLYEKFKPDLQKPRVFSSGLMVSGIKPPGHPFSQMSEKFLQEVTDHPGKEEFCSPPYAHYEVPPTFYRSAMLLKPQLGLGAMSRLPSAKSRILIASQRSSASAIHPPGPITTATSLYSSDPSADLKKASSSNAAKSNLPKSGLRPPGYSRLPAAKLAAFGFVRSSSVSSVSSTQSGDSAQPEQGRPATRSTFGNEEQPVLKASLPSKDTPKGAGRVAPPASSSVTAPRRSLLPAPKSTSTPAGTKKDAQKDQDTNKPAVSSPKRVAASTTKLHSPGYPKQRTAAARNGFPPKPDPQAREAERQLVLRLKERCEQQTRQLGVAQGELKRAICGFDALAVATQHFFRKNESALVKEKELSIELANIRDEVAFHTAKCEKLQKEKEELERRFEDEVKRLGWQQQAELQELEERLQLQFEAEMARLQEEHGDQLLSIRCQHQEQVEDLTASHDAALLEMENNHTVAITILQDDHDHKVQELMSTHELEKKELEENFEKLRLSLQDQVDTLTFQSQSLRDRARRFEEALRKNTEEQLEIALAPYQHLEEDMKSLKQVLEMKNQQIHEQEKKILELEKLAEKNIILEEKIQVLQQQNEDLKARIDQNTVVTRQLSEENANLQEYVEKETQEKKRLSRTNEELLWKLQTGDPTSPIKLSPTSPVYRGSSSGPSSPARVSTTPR
row,Variant,effect of a mutation on the interaction
1,P281L,with no effect

# Variants of: B4
# Conditions: with ccd33_human CCDC33, Q8N5R6
# Chain of ccd33_human CCDC33, Q8N5R6 (Q8N5R6 whole entry): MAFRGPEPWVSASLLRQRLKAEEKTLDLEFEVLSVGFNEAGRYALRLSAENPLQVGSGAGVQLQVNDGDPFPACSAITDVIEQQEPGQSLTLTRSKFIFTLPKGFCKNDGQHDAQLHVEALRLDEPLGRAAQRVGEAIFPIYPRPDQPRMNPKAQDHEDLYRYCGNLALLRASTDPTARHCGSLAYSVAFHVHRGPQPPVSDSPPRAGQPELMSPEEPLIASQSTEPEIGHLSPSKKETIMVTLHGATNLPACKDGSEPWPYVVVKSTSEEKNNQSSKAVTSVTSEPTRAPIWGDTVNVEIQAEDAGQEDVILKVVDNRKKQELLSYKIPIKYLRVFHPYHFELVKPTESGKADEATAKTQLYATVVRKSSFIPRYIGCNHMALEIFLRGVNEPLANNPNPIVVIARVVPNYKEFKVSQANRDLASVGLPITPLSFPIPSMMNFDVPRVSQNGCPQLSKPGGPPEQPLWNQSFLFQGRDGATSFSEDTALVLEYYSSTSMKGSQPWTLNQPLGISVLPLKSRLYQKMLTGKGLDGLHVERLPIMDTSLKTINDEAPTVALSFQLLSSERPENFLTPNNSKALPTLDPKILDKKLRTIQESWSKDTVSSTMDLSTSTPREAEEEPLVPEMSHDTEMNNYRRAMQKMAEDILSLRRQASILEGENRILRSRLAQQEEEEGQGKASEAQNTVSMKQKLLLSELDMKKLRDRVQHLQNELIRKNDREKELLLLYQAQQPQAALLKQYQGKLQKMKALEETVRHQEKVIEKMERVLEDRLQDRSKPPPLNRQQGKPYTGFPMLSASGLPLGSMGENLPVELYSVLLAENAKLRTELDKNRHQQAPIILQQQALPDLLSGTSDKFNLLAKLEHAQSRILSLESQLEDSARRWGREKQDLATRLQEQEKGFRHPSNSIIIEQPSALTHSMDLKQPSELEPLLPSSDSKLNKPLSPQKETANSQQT
row,Variant,effect of a mutation on the interaction
1,V153I,with no effect

# Variants of: B4
# Conditions: with cpin1_human CIAPIN1, Q6FI81
# Chain of cpin1_human CIAPIN1, Q6FI81 (Q6FI81 whole entry): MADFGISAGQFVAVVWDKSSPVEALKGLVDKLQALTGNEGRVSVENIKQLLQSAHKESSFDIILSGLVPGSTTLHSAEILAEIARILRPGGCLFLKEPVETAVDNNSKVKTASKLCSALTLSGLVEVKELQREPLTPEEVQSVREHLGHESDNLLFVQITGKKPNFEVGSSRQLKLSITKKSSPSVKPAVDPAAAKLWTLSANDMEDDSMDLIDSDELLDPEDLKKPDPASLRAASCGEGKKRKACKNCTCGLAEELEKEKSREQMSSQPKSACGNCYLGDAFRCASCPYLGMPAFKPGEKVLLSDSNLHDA
row,Variant,effect of a mutation on the interaction
1,V153I,with no effect

# Variants of: B4
# Conditions: with itf2_human TCF4, P15884
# Chain of itf2_human TCF4, P15884 (P15884 whole entry): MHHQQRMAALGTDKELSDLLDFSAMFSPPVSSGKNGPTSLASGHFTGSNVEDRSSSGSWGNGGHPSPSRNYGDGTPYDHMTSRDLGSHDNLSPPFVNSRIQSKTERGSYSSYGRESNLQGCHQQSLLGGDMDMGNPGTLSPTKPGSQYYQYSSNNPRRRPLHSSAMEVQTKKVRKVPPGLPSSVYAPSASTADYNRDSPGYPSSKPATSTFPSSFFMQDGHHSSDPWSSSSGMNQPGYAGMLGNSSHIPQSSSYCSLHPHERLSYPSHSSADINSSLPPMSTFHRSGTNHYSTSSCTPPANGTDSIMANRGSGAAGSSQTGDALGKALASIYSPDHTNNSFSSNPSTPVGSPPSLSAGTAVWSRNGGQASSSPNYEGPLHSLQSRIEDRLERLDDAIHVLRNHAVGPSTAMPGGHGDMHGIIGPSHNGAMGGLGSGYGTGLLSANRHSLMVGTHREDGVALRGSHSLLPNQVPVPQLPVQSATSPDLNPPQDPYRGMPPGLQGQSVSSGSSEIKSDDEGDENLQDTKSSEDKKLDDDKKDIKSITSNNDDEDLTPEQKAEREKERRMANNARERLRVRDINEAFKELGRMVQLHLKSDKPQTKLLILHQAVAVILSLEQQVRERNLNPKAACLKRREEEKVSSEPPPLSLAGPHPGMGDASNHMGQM
row,Variant,effect of a mutation on the interaction
1,V153I,with no effect

# Variants of: B5
# Conditions: with atrap_human AGTRAP
row,Variant,effect of a mutation on the interaction
1,I163M,disrupting interaction strength

# Variants of: B6
# Conditions: with imp3_human IMP3, Q9NV31
row,Variant,effect of a mutation on the interaction
1,S688L,with no effect
2,R8Q,with no effect

# Variants of: B7
# Conditions: with max_human MAX
row,Variant,effect of a mutation on the interaction
1,Q251E,with no effect

# From IntAct's records for PubMed 31515488
